Measured values published in patent US20080268487.
Like-named read-outs stand apart in the source and are kept apart here.

Legend:
GST-Rab8B [GST: P08515] [1] = tested on: GST-Rab8B [GST: P08515]
GST-Rab2A [GST: P08515] [2] = tested on: GST-Rab2A [GST: P08515]
GST-Rab8A (dog Rab8A) = GST-Rab8A (dog Rab8A) (UniProt P61007)
GST-Rab10 (human Rab10) [3] = tested on: T1, GST-Rab10 (human Rab10)
T1 sequence: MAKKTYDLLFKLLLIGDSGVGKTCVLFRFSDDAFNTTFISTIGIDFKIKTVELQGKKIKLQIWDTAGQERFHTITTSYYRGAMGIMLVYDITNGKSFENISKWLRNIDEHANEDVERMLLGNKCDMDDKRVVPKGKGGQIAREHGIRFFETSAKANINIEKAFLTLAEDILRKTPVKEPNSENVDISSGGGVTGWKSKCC

GST-Rab8B [GST: P08515] [4] = molecular target: GST-Rab8B [GST: P08515]; remark: listed apart in the source
[5] = molecular target: GST-Rab14 (mouse Rab14), Q91V41
GST-Rab10 (human Rab10) [6] = molecular target: T2, GST-Rab10 (human Rab10)
T2 chain: T1 sequence

[7] = molecular target: T3, GST-Rab8A (dog Rab8A), P61007
T3 chain: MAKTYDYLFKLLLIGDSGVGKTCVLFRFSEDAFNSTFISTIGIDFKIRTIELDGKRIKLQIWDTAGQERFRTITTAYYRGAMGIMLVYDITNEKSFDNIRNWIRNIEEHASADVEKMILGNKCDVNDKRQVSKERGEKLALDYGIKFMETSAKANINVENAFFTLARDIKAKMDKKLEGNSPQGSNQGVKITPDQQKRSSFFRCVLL

GST-Rab2A [GST: P08515] [8] = molecular target: GST-Rab2A [GST: P08515]; remark: listed apart in the source

GST-Rab14 (mouse Rab14), Q91V41, sequence (Q91V41 whole entry, looked up): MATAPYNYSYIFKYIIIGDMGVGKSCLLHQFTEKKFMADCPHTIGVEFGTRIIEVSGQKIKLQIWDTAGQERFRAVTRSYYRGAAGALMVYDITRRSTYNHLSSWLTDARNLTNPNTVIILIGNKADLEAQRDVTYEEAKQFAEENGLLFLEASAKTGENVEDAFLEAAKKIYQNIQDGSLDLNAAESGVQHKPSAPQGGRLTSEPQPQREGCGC

GST-GAP Arg/Lys (GST-GAP domain with Arg973 mutated to Lys)
hydrolysis of Rab-bound [α^32P]GTP to GDP (thin layer chromatography) (GST-Rab8B [GST: P08515] [1]): For each of Rab 2A, 8A, 8B, 10, and 14, the GAP Arg/Lys construct exhibited no significant activity | hydrolysis of Rab-bound [α^32P]GTP to GDP (thin layer chromatography) (GST-Rab2A [GST: P08515] [2]): For each of Rab 2A, 8A, 8B, 10, and 14, the GAP Arg/Lys construct exhibited no significant activity | hydrolysis of Rab-bound [α^32P]GTP to GDP (thin layer chromatography) (GST-Rab8A (dog Rab8A)): For each of Rab 2A, 8A, 8B, 10, and 14, the GAP Arg/Lys construct exhibited no significant activity | hydrolysis of Rab-bound [α^32P]GTP to GDP (thin layer chromatography) (GST-Rab10 (human Rab10) [3]): For each of Rab 2A, 8A, 8B, 10, and 14, the GAP Arg/Lys construct exhibited no significant activity

B1: AS160 GAP domain-GST fusion protein (protein)
chain: GASRDELQSRKVKLDYEEVGACQKEVLITWDKKLLNCRAKIRCDMEDIHTLLKEGVPKSRRGEIWQFLALQYRLRHRLPNKQQPPDISYKELLKQLTAQQHAILVDLGRTFPTHPYFSVQLGPGQLSLFNLLKAYSLLDKEVGYCQGISFVAGVLLLHMSEEQAFEMLKFLMYDLGFRKQYRPDMMSLQIQMYQLSRLLHDYHRDLYNHLEENEISPSLYAAPWFLTLFASQFSLGFVARVFDIIFLQGTEVIFKVALSLLSSQETLIMECESFENIVEFLKNTLPDMNTSEMEKIITQVFEMDISKQLHAYEVEYHVLQDELQESSYSCEDSETLEKLERANSQLKRQNMDLLEKLQVAHTKIQALESNLENLLTRETKMKSLIRTLEQEKMAYQKTVEQLRKLLPADALANCDLLLRDLNCNPNNKAKIGNKP
hydrolysis of Rab-bound [α^32P]GTP to GDP (thin layer chromatography) (GST-Rab8B [GST: P08515] [4]): the GAP domain markedly stimulated the hydrolysis of [α^32P]GTP bound to Rabs 2A, 8A, 8B, 10, and 14 | GAP activity in the presence of a 10-fold molar excess of GST as carrier protein [5]: the presence of excess GST did not inhibit the GAP activity | GAP assay with GST-GAP domain attached to glutathione beads [5]: the same molar amount of the GST-GAP domain attached to glutathione beads showed the expected activity against Rab14 | hydrolysis of Rab-bound [α^32P]GTP to GDP (thin layer chromatography) [5]: the GAP domain markedly stimulated the hydrolysis of [α^32P]GTP bound to Rabs 2A, 8A, 8B, 10, and 14 | kcat/Km [5]: a kcat/Km value of 0.2 min^-1 µmolar^-1 | rate of hydrolysis of the bound [α^32P]GTP with 130 nM GST-GAP domain [5]: approximately 3% per minute with 130 nM GST-GAP domain | hydrolysis of Rab-bound [α^32P]GTP to GDP (thin layer chromatography) (GST-Rab10 (human Rab10) [6]): the GAP domain markedly stimulated the hydrolysis of [α^32P]GTP bound to Rabs 2A, 8A, 8B, 10, and 14 | hydrolysis of Rab-bound [α^32P]GTP to GDP (thin layer chromatography) [7]: the GAP domain markedly stimulated the hydrolysis of [α^32P]GTP bound to Rabs 2A, 8A, 8B, 10, and 14 | hydrolysis of Rab-bound [α^32P]GTP to GDP (thin layer chromatography) (GST-Rab2A [GST: P08515] [8]): the GAP domain markedly stimulated the hydrolysis of [α^32P]GTP bound to Rabs 2A, 8A, 8B, 10, and 14

B2: recombinant GAP domain without GST (protein)
chain: B1 chain
GAP activity compared with that of GST-GAP domain [5]: no difference was observed

B3: recombinant full-length FLAG-tagged AS160 (protein)
chain: MEPPSCIQDEPFPHPLEPEPGVSAQPGPGKPSDKRFRLWYVGGSCLDHRTTLPMLPWLMAEIRRRSQKPEAGGCGAPAAREVILVLSAPFLRCVPAPGAGASGGTSPSATQPNPAVFIFEHKAQHISRFIHNSHDLTYFAYLIKAQPDDPESQMACHVFRATDPSQVPDVISSIRQLSKAAMKEDAKPSKDNEDAFYNSQKFEVLYCGKVTVTHKKAPSSLIDDCMEKFSLHEQQRLKIQGEQRGPDPGEDLADLEVVVPGSPGDCLPEEADGTDTHLGLPAGASQPALTSSRVCFPERILEDSGFDEQQEFRSRCSSVTGVQRRVHEGSQKSQPRRRHASAPSHVQPSDSEKNRTMLFQVGRFEINLISPDTKSVVLEKNFKDISSCSQGIKHVDHFGFICRESPEPGLSQYICYVFQCASESLVDEVMLTLKQAFSTAAALQSAKTQIKLCEACPMHSLHKLCERIEGLYPPRAKLVIQRHLSSLTDNEQADIFERVQKMKPVSDQEENELVILHLRQLCEAKQKTHVHIGEGPSTISNSTIPENATSSGRFKLDILKNKAKRSLTSSLENIFSRGANRMRGRLGSVDSFERSNSLASEKDYSPGDSPPGTPPASPPSSAWQTFPEEDSDSPQFRRRAHTFSHPPSSTKRKLNLQDGRAQGVRSPLLRQSSSEQCSNLSSVRRMYKESNSSSSLPSLHTSFSAPSFTAPSFLKSFYQNSGRLSPQYENEIRQDTASESSDGEGRKRTSSTCSNESLSVGGTSVTPRRISWRQRIFLRVASPMNKSPSAMQQQDGLDRNELLPLSPLSPTMEEEPLVIFLSGEDDPEKIEERKKSKELRSLWRKAIHQQILLLRMEKENQKLEGASRDELQSRKVKLDYEEVGACQKEVLITWDKKLLNCRAKIRCDMEDIHTLLKEGVPKSRRGEIWQFLALQYRLRHRLPNKQQPPDISYKELLKQLTAQQHAILVDLGRTFPTHPYFSVQLGPGQLSLFNLLKAYSLLDKEVGYCQGISFVAGVLLLHMSEEQAFEMLKFLMYDLGFRKQYRPDMMSLQIQMYQLSRLLHDYHRDLYNHLEENEISPSLYAAPWFLTLFASQFSLGFVARVFDIIFLQGTEVIFKVALSLLSSQETLIMECESFENIVEFLKNTLPDMNTSEMEKIITQVFEMDISKQLHAYEVEYHVLQDELQESSYSCEDSETLEKLERANSQLKRQNMDLLEKLQVAHTKIQALESNLENLLTRETKMKSLIRTLEQEKMAYQKTVEQLRKLLPADALANCDLLLRDLNCNPNNKAKIGNKP
GAP assay with protein attached to anti-FLAG beads [5]: The full-length AS160 exhibited no significant activity above that of the Arg973Lys mutant with Rabs 2A, 8A, and 14 as substrates | GAP assay with protein attached to anti-FLAG beads [7]: The full-length AS160 exhibited no significant activity above that of the Arg973Lys mutant with Rabs 2A, 8A, and 14 as substrates | GAP assay with protein attached to anti-FLAG beads (GST-Rab2A [GST: P08515] [8]): The full-length AS160 exhibited no significant activity above that of the Arg973Lys mutant with Rabs 2A, 8A, and 14 as substrates
